Experimental data published in patent US20240100176A1 (Eli Lilly, published 2024).

Key:
Assay in all cases: capture ELISA: Ab1 on anti-human IgG Fc, His-tagged receptor at 0.2 µg/mL, anti-His HRP
[1] = molecular target: T1, hexahistidine tagged human IL-4Rα ECD E6R (human, UniProt P24394 26-232)
T1 construct: not shown: hexahistidine tag
Text: (§1) Example 2d. […] Briefly, thirty surface amino acid residue substitutions were introduced individually into hexahistidine tagged human IL-4Rα extra cellular domain (ECD) as follows: K2D, E6R, K22D, P26R, T31R, F41A, L42G, L43G, E45R, E52R, G56R, D66R, A71R, Q82G, K87D, E94R, H107A, D108R, P124R, D125R, D143R, R148D, L155R, R160D, S164R, S168R, Q181R, P192R, K195D, or H197G. Each mutant protein having a single amino acid residue substitution as described above was transiently expressed in CHO cells and purified using standard immobilized metal affinity chromatography techniques. […] The plates were then washed 3 times with PBST and the exemplified human IL-4Rα antibody was added to the wells at a final concentration of 1 μg/mL in PBS-casein and incubated for 1 hour at room temperature. The plates were washed 3 times with PBST, the IL-4Rα mutant proteins were serially diluted 5-fold from 1 μg/mL for 3 points. in PBS-casein and added to the plate at 50 μL/well and incubated for 1 hour at room temperature. The plates were washed 3 times with PBST and a 1000-fold dilution of anti-histidine tag antibody HRP conjugate (R&D Systems, Cat. #MAB050H) in PBS-casein was added and incubated for 45 minutes at room temperature. The plates were washed 3 times, TMB substrate (Pierce, Cat. #34028) was added per manufacturer instructions, the reaction was quenched with H₂SO₄, and absorbance was read at 450 nm on an ELISA plate reader.

[2] = molecular target: T2, hexahistidine tagged human IL-4Rα ECD T31R (human, UniProt P24394 26-232)
T2 construct: not shown: hexahistidine tag
Text: as §1

[3] = molecular target: T3, hexahistidine tagged human IL-4Rα ECD F41A (human, UniProt P24394 26-232)
T3 construct: not shown: hexahistidine tag
Text: as §1

[4] = molecular target: T4, hexahistidine tagged human IL-4Rα ECD E45R (human, UniProt P24394 26-232)
T4 construct: not shown: hexahistidine tag
Text: as §1

[5] = molecular target: T5, hexahistidine tagged human IL-4Rα ECD E52R (human, UniProt P24394 26-232)
T5 construct: not shown: hexahistidine tag
Text: as §1

[6] = molecular target: T6, hexahistidine tagged human IL-4Rα ECD G56R (human, UniProt P24394 26-232)
T6 construct: not shown: hexahistidine tag
Text: as §1

[7] = molecular target: T7, hexahistidine tagged human IL-4Rα ECD A71R (human, UniProt P24394 26-232)
T7 construct: not shown: hexahistidine tag
Text: as §1

[8] = molecular target: T8, hexahistidine tagged human IL-4Rα ECD K87D (human, UniProt P24394 26-232)
T8 construct: not shown: hexahistidine tag
Text: as §1

[9] = molecular target: T9, hexahistidine tagged human IL-4Rα ECD E94R (human, UniProt P24394 26-232)
T9 construct: not shown: hexahistidine tag
Text: as §1

[10] = molecular target: T10, hexahistidine tagged human IL-4Rα ECD H107A (human, UniProt P24394 26-232)
T10 construct: not shown: hexahistidine tag
Text: as §1

[11] = molecular target: T11, hexahistidine tagged human IL-4Rα ECD D125R (human, UniProt P24394 26-232)
T11 construct: not shown: hexahistidine tag
Text: as §1

[12] = molecular target: T12, hexahistidine tagged human IL-4Rα ECD L155R (human, UniProt P24394 26-232)
T12 construct: not shown: hexahistidine tag
Text: as §1

[13] = molecular target: T13, hexahistidine tagged human IL-4Rα ECD R160D (human, UniProt P24394 26-232)
T13 construct: not shown: hexahistidine tag
Text: as §1

[14] = molecular target: T14, hexahistidine tagged human IL-4Rα ECD S164R (human, UniProt P24394 26-232)
T14 construct: not shown: hexahistidine tag
Text: as §1

[15] = molecular target: T15, hexahistidine tagged human IL-4Rα ECD Q181R (human, UniProt P24394 26-232)
T15 construct: not shown: hexahistidine tag
Text: as §1

[16] = molecular target: T16, hexahistidine tagged human IL-4Rα ECD P192R (human, UniProt P24394 26-232)
T16 construct: not shown: hexahistidine tag
Text: as §1

[17] = molecular target: T17, hexahistidine tagged human IL-4Rα ECD K195D (human, UniProt P24394 26-232)
T17 construct: not shown: hexahistidine tag
Text: as §1

[18] = molecular target: T18, hexahistidine tagged human IL-4Rα ECD H197G (human, UniProt P24394 26-232)
T18 construct: not shown: hexahistidine tag
Text: as §1

T11 sequence (P24394 26-232 D150R): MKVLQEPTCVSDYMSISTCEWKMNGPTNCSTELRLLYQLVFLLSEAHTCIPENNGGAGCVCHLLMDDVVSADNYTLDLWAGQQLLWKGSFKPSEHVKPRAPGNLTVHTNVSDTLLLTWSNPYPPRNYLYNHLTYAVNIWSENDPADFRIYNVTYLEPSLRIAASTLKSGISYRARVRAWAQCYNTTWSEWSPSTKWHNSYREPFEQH
T9 sequence (P24394 26-232 E119R): as the sequence (P24394 26-232 D150R) above, with E94R, R125D counted along it
T5 sequence (P24394 26-232 E77R): as the sequence (P24394 26-232 D150R) above, with E52R, R125D counted along it
T16 sequence (P24394 26-232 P217R): as the sequence (P24394 26-232 D150R) above, with R125D, P192R counted along it
T3 sequence (P24394 26-232 F66A): as the sequence (P24394 26-232 D150R) above, with F41A, R125D counted along it
T2 sequence (P24394 26-232 T56R): as the sequence (P24394 26-232 D150R) above, with T31R, R125D counted along it
T10 sequence (P24394 26-232 H132A): as the sequence (P24394 26-232 D150R) above, with H107A, R125D counted along it
T8 sequence (P24394 26-232 K112D): as the sequence (P24394 26-232 D150R) above, with K87D, R125D counted along it
T18 sequence (P24394 26-232 H222G): as the sequence (P24394 26-232 D150R) above, with R125D, H197G counted along it
T7 sequence (P24394 26-232 A96R): as the sequence (P24394 26-232 D150R) above, with A71R, R125D counted along it
T6 sequence (P24394 26-232 G81R): as the sequence (P24394 26-232 D150R) above, with G56R, R125D counted along it
T1 sequence (P24394 other isoform, or with tags, fused parts or gaps): as the sequence (P24394 26-232 D150R) above, with E6R, R125D counted along it
T17 sequence (P24394 26-232 K220D): as the sequence (P24394 26-232 D150R) above, with R125D, K195D counted along it
T12 sequence (P24394 26-232 L180R): as the sequence (P24394 26-232 D150R) above, with R125D, L155R counted along it
T15 sequence (P24394 26-232 Q206R): as the sequence (P24394 26-232 D150R) above, with R125D, Q181R counted along it
T4 sequence (P24394 26-232 E70R): as the sequence (P24394 26-232 D150R) above, with E45R, R125D counted along it
T14 sequence (P24394 26-232 S189R): as the sequence (P24394 26-232 D150R) above, with R125D, S164R counted along it
T13 sequence (P24394 26-232 R185D): as the sequence (P24394 26-232 D150R) above, with R125D, R160D counted along it

B1: anti-human IL-4Rα antibody Ab1 (antibody, human IgG4 S228P, kappa)
heavy: QVQLVESGGGLVQPGGSLRLSCVASGFTFSHSSMNWVRQAPGKGLEWVSYISRATGAVYYADSVKGRFTISRDNAKNSLYLQMNSLRDEDTAVYYCAREPVFDYWGQGTLVTVSSASTKGPCVFPLAPCSRSTSESTAALGCLVKDYFPEPVTVSWNSGALTSGVHTFPAVLQSSGLYSLSSVVTVPSSSLGTKTYTCNVDHKPSNTKVDKRVESKYGPPCPPCPAPEFLGGPSVFLFPPKPKDTLMISRTPEVTCVVVDVSQEDPEVKFNWYVDGVEVHNAKTKPREEQFNSTYRVVSVLTVLHQDWLNGKEYKCKVSNKGLPSSIEKTISKAKGQPREPQVYTLPPSREEMTKNQVSLTCLVKGFYPSDICVEWESNGQPENNYKTTPPVLDSDGSFFLYSRLTVDKSRWQQGNVFSCSVMHEALHNHYTQKSLSLSLG
light: DIQMTQSPSAMSASVGDRVTITCRASQDISNYLAWFQQKPGKVPTRLIYAASSLQSGVPSRFSGSGSGTEFTLTISSLQPEDFATYYCLQWSSYPRTFGQGTKVEIKRTVAAPSVFIFPPSDEQLKSGTASVVCLLNNFYPREAKVQWKVDNALQSGNSQESVTEQDSKDSTYSLSSTLTLSKADYEKHKVYACEVTHQGLSSPVTKSFNRGEC
notes: human kappa light chain; also called anti-human IL-4Rα Ab1; unconjugated Ab1
- ELISA (OD450) [1]: 1.5 OD450
- ELISA (OD450) [2]: 1.49 OD450
- ELISA (OD450) [3]: 1.54 OD450
- ELISA (OD450) [4]: 1.86 OD450
- ELISA (OD450) [5]: 1.71 OD450
- ELISA (OD450) [6]: 1.7 OD450
- ELISA (OD450) [7]: 1.57 OD450
- ELISA (OD450) [8]: 1.56 OD450
- ELISA (OD450) [9]: 1.64 OD450
- ELISA (OD450) [10]: 1.84 OD450
- ELISA (OD450) [11]: 1.61 OD450
- ELISA (OD450) [12]: 1.68 OD450
- ELISA (OD450) [13]: 1.7 OD450
- ELISA (OD450) [14]: 1.77 OD450
- ELISA (OD450) [15]: 1.71 OD450
- ELISA (OD450) [16]: 1.75 OD450
- ELISA (OD450) [17]: 1.65 OD450
- ELISA (OD450) [18]: 1.6 OD450
